From patent publication US20230381350A1 (PRECIRIX N V, published 2023)

Columns and labels:
[1] = target: T1, human DPP IV recombinant protein (human, UniProt P27487 29-766); assay: ELISA, coated human DPP IV, HA-His6-tagged VHH extract, anti-HA detection
T1 construct: extracellular domain; Bought protein; also called Dipeptidyl amino-peptidase IV
Experimental: (§1) The day before measurement, 0.1 μg recombinant protein at a concentration of 1 μg/mL in 100 mM NaHCO₃, pH 8.2 was coated in a 96-well ELISA plate (Nunc MaxiSorp). Per VHH clone also a blank coated well was foreseen (only buffer). The wells were overcoated with protein-free T20 (PBS) blocking buffer (Pierce). After washing with PBS, pH7.4, 0.05% Tween, VHH-containing bacterial freeze-thaw extract was added to every well. Binding of HA-His₆-tagged VHHs was detected by using mouse anti-HA.11 epitope tag (clone 16B12, Biolegend) as the primary Ab and goat anti-mouse IgG (whole molecule) alkaline phosphatase conjugate (Sigma-Aldrich) as the secondary Ab, with thorough washing with PBS, pH 7.4, 0.05% Tween in between. Signals were developed using phosphatase substrate (Sigma-Aldrich) in AP blot buffer (100 mM NaCl, 50 mM MgCl₂, 100 mM Tris, pH 9.5). The absorbance was determined at 405 nm using an absorbance microplate reader (Molecular Devices). Per clone the ratio was determined between the absorbance in the antigen-coated well versus the well without antigen.

[2] = target: T2, human FAP recombinant protein (human, UniProt Q12884 26-760); assay: ELISA, coated human FAP recombinant protein, HA-His6-tagged VHH extract, anti-HA detection
T2 construct: The protein was biotinylated with sulfo-NHS-SS-biotin for bio-layer interferometry; also called extracellular domain of human FAP with N-terminal His6-tag
T2 sequence: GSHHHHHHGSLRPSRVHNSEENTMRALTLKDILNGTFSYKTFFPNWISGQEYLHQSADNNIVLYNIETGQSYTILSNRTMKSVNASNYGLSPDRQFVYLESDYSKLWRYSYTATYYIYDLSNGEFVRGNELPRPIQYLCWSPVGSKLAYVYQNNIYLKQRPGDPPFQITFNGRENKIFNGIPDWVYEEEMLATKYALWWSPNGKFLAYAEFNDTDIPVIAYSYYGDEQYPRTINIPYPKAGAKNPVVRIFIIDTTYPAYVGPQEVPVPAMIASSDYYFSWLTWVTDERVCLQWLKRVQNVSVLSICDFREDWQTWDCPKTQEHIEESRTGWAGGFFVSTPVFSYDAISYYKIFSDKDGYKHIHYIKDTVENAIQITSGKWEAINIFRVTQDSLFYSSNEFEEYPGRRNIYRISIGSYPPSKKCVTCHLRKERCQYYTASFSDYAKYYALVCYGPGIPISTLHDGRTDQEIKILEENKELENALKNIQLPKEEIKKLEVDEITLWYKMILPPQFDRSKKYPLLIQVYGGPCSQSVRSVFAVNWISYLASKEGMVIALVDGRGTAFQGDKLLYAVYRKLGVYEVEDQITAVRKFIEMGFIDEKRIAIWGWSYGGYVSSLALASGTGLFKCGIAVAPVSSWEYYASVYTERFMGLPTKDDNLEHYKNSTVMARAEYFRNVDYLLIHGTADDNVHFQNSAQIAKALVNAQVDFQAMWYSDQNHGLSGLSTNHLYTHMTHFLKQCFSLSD
Experimental: as §1

[3] = target: T1, human DPP IV recombinant protein; assay: ELISA on coated recombinant protein, VHH-containing bacterial extract, anti-HA detection, signal-to-background ratio
Experimental: as §1

[4] = target: T3, human FAP expressed on cells (human, UniProt Q12884 1-760); assay: saturation binding of 99mTc-labelled VHH on human FAP-expressing HEK-293 cells (mean ± SD, n = 3)
T3 construct: also called human FAP cell surface protein; human FAP receptor
T3 sequence: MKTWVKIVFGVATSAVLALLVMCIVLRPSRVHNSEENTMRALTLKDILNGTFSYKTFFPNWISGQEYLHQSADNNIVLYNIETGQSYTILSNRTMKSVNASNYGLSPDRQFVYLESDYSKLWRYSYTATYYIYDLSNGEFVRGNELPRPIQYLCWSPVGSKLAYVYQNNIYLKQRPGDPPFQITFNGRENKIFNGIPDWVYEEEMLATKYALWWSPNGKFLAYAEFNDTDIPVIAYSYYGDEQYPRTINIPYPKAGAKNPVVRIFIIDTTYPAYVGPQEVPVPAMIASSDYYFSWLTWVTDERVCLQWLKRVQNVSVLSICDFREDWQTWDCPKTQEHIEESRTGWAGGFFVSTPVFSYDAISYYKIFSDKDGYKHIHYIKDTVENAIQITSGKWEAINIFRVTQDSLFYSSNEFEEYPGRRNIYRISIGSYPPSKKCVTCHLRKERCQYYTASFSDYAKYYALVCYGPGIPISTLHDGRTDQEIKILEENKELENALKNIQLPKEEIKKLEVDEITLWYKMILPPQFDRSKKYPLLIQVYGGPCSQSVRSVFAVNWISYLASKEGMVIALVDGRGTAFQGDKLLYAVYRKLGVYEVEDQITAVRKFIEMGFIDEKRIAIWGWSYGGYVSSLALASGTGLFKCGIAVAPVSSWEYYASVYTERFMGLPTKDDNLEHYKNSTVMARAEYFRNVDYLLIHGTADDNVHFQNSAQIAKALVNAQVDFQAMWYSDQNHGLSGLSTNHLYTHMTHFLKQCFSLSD
Experimental: (§2) Next, we describe the in vitro and in vivo human and murine FAP binding potential of different VHHs after radiolabelling with the diagnostic radioisotope ^99mTc. […] His₆-tagged human/murine FAP-targeting VHHs were radiolabelled with the diagnostic radioisotope ^99mTc, according to the radiochemical procedure described in Example 3.
(§3) Next, the different cell lines were incubated with serial dilutions with concentrations ranging from 0 to 300 nM of the different ^99mTc-labelled His₆-tagged VHHs. A 100-fold excess of the corresponding unlabeled VHH was added in parallel to saturate the human or murine FAP proteins on the cancer cell surface, to assess non-specific binding. The resulting EC50 values for each of the VHHs are depicted in Table 8. […] We confirmed that ^99mTc-labeled VHH B4 only binds murine FAP cell surface protein, while VHH B3 only binds human FAP cell surface molecules in vitro.

[5] = target: T3, human FAP expressed on cells; assay: saturation binding of 99mTc-labelled VHH on human FAP-expressing GM05389 cells (mean ± SD, n = 3)
Experimental: as §2, §3

[6] = target: T4, murine FAP expressed on cells (murine, UniProt P97321 1-761); assay: saturation binding of 99mTc-labelled VHH on murine FAP-expressing HEK-293 cells
T4 construct: also called murine FAP cell surface protein
T4 sequence: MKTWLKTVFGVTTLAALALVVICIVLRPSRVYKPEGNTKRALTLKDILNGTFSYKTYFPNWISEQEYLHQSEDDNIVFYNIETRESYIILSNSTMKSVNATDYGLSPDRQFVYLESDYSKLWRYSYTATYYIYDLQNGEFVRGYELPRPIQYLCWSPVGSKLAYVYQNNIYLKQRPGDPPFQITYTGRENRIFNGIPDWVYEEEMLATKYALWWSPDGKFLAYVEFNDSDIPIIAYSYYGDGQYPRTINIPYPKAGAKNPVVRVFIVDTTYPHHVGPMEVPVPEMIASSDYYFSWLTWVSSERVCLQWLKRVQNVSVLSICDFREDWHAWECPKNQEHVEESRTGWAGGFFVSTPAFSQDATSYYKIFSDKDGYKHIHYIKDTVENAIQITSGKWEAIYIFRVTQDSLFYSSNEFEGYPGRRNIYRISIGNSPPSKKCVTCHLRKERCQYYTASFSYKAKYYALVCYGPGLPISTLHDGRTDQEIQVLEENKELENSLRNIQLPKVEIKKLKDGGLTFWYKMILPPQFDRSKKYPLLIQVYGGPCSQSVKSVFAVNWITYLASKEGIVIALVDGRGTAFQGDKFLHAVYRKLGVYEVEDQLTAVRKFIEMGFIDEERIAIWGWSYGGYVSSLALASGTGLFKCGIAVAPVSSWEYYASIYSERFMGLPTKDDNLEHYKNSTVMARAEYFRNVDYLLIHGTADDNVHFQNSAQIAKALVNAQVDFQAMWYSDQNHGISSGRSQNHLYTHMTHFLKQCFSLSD
Experimental: as §3

[7] = target: T4, murine FAP expressed on cells; assay: saturation binding of 99mTc-labelled VHH on murine FAP-expressing HEK-293 cells (mean ± SD, n = 3)
Experimental: as §2, §3

[8] = target: T3, human FAP expressed on cells; assay: saturation binding of 99mTc-labelled VHH on human FAP-expressing GM05389 cells
Experimental: as §3

[9] = target: T3, human FAP expressed on cells; assay: saturation binding of 131I-SGMIB-labelled VHH on human FAP-transfected HEK-293 cells; HEK-293 cells
Experimental: (§4) In a first part, the in vitro behaviour was assessed by means of investigating their cellular binding and retention overtime. The binding potential of the resulting radioconjugates was assessed to confirm that this was not affected by the introduction of ¹³¹I-SGMIB into the amino acid sequence of the VHH. To this, human FAP-expressing GM05389 (His₆-tagged and untagged VHH B1) and human FAP-transfected HEK-293 cells (His₆-tagged and untagged VHH B1; His₆-tagged VHH B2) were incubated with serial dilutions with concentrations ranging from 0 to 33 nM of the different ¹³¹I-labelled VHHs. A 100-fold excess of the corresponding unlabeled VHH was added in parallel to saturate the human FAP receptors expressed on cancer cells, to assess non-specific binding.

[10] = target: T3, human FAP expressed on cells; assay: saturation binding of 131I-SGMIB-labelled VHH on human FAP-expressing GM05389 cells; GM05389 cells
Experimental: as §4

T1 sequence (P27487 29-766): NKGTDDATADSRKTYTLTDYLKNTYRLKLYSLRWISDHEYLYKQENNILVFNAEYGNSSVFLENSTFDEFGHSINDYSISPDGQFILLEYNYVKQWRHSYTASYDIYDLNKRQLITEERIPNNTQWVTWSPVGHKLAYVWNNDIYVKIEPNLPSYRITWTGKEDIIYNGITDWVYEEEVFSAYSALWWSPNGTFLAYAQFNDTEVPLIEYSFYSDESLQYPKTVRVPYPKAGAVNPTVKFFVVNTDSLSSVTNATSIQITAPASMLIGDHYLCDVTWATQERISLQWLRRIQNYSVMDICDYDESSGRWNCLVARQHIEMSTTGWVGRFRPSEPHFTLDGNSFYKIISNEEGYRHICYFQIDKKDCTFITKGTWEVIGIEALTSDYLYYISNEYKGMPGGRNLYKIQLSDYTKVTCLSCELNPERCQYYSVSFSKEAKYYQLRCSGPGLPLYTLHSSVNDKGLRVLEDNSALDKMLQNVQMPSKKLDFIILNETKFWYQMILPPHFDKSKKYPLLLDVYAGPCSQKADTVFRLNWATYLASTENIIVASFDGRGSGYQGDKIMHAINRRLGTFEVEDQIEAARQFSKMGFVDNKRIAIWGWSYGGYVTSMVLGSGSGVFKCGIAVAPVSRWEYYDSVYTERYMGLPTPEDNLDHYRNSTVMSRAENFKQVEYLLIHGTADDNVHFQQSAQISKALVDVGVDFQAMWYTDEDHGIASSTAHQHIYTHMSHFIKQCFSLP

B1: HA-His6-tagged VHH B2 (VHH)
VHH: QVQLQESGGGLVQAGGSLRLSCAVSGSISSANSMGWYRQAPGKQRDVVAGLTTGGRSHYADSVKGRFTISRDNAKNTVYLQMNSLKAEDTAVYYCNLWPPVQGYWGQGTQVTVSS
notes: also called B2 with HA-His6-tag
[1]
  signal-to-background ratio: ~1
[2]
  signal-to-background ratio: > 25
[3]
  binding result: no binding

B2: 99mTc-labeled His6-tagged VHH B3 (VHH)
VHH: DVQLVESGGGLVQAGGSLRLSCAVSGRLFSTNAMGWYRQAPGKQRELVAGITGGDRSNYADSVKGRFTISRDNGKNTLYLQMNSLKPEDTAVYYCNFYPPIVGDYWGQGTQVTVSS
modifications: [99mTc(H2O)3(CO)3] complexed at the His6-tag
notes: also called 99mTc-B3
[4]
  EC50: 2.4 nM
[5]
  EC50: 2.7 nM
[6]
  binding result: no binding (tested: 0 to 300 nM)

B3: 99mTc-labeled His6-tagged VHH B4 (VHH)
VHH: DVQLVESGGGLVQVGGSLRLSCVASGFTFSSYYMSWVRQAPGKGLEWVASIYADGDMTYYADSVRGRFTISRDNAKNTLYLQMNSLKSEDTAVYYCAKDPLPPYHVNQGTQVTVSS
modifications: [99mTc(H2O)3(CO)3] complexed at the His6-tag
notes: also called 99mTc-B4
[7]
  EC50: 7.6 nM
[8]
  binding result: no binding (tested: 0 to 300 nM)

B4: 131I-labeled His6-tagged VHH B1 (VHH)
VHH: DVQLVESGGGLVQPGGSLRLSCVASGRLSSSNSMAWYRQVPGKRRELVAGITGGGETNYADFVGGRFTISRDNAKNGLYLQLNGLKPEDTAAYYCNFWPPLINYWGQGTQVTVSS
modifications: [131I]SGMIB conjugated to lysine side-chain amines
notes: also called 131I-B1; His6-tagged B1
[9]
  EC50: 1.4 nM
[10]
  EC50: 0.6 nM

B5: 131I-labeled untagged VHH B1 (VHH)
VHH: DVQLVESGGGLVQPGGSLRLSCVASGRLSSSNSMAWYRQVPGKRRELVAGITGGGETNYADFVGGRFTISRDNAKNGLYLQLNGLKPEDTAAYYCNFWPPLINYWGQGTQVTVSS
modifications: [131I]SGMIB conjugated to lysine side-chain amines
notes: also called untagged B1; [131I]SGMIB-VHH
[9]
  EC50: 2.8 nM
[10]
  EC50: 2.7 nM

B6: 131I-labeled His6-tagged VHH B2 (VHH)
VHH: DVQLVESGGGLVQAGGSLRLSCAVSGSISSANSMGWYRQAPGKQRDVVAGLTTGGRSHYADSVKGRFTISRDNAKNTVYLQMNSLKAEDTAVYYCNLWPPVQGYWGQGTQVTVSS
modifications: [131I]SGMIB conjugated to lysine side-chain amines
notes: also called 131I-B2; His6-tagged B2
[9]
  EC50: 3.8 nM

B7: 99mTc-labeled non-targeting control VHH R3B23 (VHH)
VHH: QVQLQESGGGSVQAGGSLRLSCAASGDTGYMGWFRQAPGKEREGVAVINSDSGVGSTYYADSVKGRFTISRDNAKNTVYLQMNSLKPEDTAIYYCAAGHFSDYVSPWTWREIYRYNVWGQGTQVTVSS
modifications: 99mTc label (labelling is described at the His6-tag)
notes: also called 99mTc-R3B23
[6]
  binding result: no binding (tested: 0 to 300 nM)
[8]
  binding result: no binding (tested: 0 to 300 nM)
